Columns and labels:
IL-13RA2 huFc (human) [1] = assay: SPR (Biacore T200), ligand IL13Ra2 on the chip, scFv_Fc as analyte at 6.25 to 100 nM, 1:1 binding fit, flow 30 ul/min
[2] = biological target: T1, IL-13RA2 endogenously expressed on U251 cells (human) (UniProt Q14627); assay: flow cytometry on U251 cells, scFv_Fc form, 5-fold dilutions from 2,000 nM, FITC anti-human IgG
T1 sequence (looked up): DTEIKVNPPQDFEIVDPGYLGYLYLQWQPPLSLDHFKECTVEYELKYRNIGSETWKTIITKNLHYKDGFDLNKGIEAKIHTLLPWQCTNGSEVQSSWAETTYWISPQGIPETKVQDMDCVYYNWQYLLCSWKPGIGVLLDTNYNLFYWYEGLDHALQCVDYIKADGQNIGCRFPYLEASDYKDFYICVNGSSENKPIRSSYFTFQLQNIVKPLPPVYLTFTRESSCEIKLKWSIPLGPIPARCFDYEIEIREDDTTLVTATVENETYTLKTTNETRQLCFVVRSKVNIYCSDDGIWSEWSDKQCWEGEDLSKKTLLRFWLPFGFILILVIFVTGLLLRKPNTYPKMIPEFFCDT

IL-13RA2 huFc (human) [3] = assay: SPR (Biacore T200), scFv_Fc forms on IL-13RA2 huFc, summary table

B1: 2D3 (scFv_Fc form) (Fc fusion, not shown: a dimerising Fc or GST)
scFv: EVQLLESGGGLVQPGGSLRLSCAASGFTFRRPAMTWVRQAPGKGLEWVSAITGSGGSTYYADSVKGRFTISRDNSKNTLYLQMNSLRAEDTAVYYCVKVRYGWGAGAFDYWGQGTLVTVSSGGGGSGGGGSGGGGSDIQMTQSPSTLSASVGDRVTITCRASQSISSWLAWYQQKPGKAPKLLIYDASSLESGVPSRFSGSGSGTEFTLTISSLQPDDFATYYCQQYDTYPPITFGQGTKVEIK
IL-13RA2 huFc (human) [1]
  Kd: 0.348 nM
  koff: 0.000196 s⁻¹
  kon: 563000 M⁻¹ s⁻¹
[2]
  EC50: 0.33 nM
IL-13RA2 huFc (human) [3]
  Kd: 0.348 nM
  koff: 0.000196 s⁻¹
  kon: 563000 M⁻¹ s⁻¹

From patent US20190359723A1
